Experimental findings from patent US20120058906A1 (published 2012) are described below.

Experiment [1] has as its target T1, rHuman HGF R/c-MET/Fc Chimera, CF (R&D Systems Cat#358-MT/CF) (human, UniProt P08581 25-932).
T1 construct: Bought reagent; also called HGF R/Fc; hepatocyte growth factor receptor; Fc part of the bought chimera not given
Briefly: ECL (MSD multi-spot), antigen spotted on plate; Fab 22 nM; blank spot 289.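 Also: blank spot per well as comparator with Hit at signal to blank ratio of 4 or more.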

Experiment [2] has as its target T2, Recombinant Human DLL4 (R&D Systems Cat#1506-D4/CF) (human, UniProt Q9NR61 27-524).
T2 construct: Bought reagent; also called delta-like protein 4
The description is as above.

Experiment [3] deals with T3, rHuman CD44/Fc Chimera, CF (R&D Systems Cat#3660-CD) (human, UniProt P16070 21-220).
T3 construct: Bought reagent; Fc part of the bought chimera not given
The experiment is described as above.

For experiment [4], the target named is T4, rHuman Erythropoietin R/Fc Chimera, CF (R&D Systems Cat#963-ER) (human, UniProt P19235 25-250).
T4 construct: Bought reagent; also called EPO R/Fc; Epo R; Fc part of the bought chimera not given
T4 sequence: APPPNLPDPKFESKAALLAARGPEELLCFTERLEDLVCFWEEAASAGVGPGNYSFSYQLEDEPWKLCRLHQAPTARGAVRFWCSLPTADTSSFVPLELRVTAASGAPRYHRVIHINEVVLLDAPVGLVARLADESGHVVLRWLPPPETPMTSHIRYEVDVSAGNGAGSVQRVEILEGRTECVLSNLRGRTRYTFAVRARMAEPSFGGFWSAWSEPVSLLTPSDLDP
Described as above.

In experiment [5] the target is T5, rHuman P-Cadherin/Fc Chimera, CF (R&D Systems Cat#861-PC) (human, UniProt P22223 108-654).
T5 construct: Bought reagent; also called CDH3; Fc part of the bought chimera not given
The description is as above.

Experiment [6] concerns the target T6, rHuman ErbB2/Fc Chimera, CF (R&D Systems Cat#1129-ER) (human, UniProt P04626 23-652).
T6 construct: Bought Fc chimera; also called human epidermal growth factor 2 receptor; HER2/neu; Fc part of the bought chimera not given
Briefly: ECL (MSD Multi-Spot) binding, antigen spotted on plate; Fab 5 nM.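 Also: blank spot per well as comparator with Hit at signal to blank ratio of 4 or more.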

Experiment [7] has as its target T7, rHuman Notch-1/Fc Chimera, CF (R&D Systems Cat#3647-TK) (human, UniProt P46531 19-526).
T7 construct: Bought Fc chimera; Fc part of the bought chimera not given
Described as above.

Experiment [8] addresses T8, rHuman CD44/Fc Chimera, CF (R&D Systems Cat#3660-CD) (human, UniProt P16070 21-220).
T8 construct: Bought Fc chimera; Fc part of the bought chimera not given
Described as above.

In experiment [9] the target is T9, rHuman EGF R/Fc Chimera, CF (R&D Systems Cat#344-ER) (human, UniProt P00533 25-645).
T9 construct: Bought Fc chimera; also called epidermal growth factor receptor; Fc part of the bought chimera not given
Described as above.

In experiment [10] the target is T10, Recombinant Human DLL4 (R&D Systems Cat#1506-D4/CF) (human, UniProt Q9NR61 27-524).
T10 construct: Bought recombinant protein; also called delta-like protein 4
The description is as above.

Experiment [11] addresses T11, rHuman IGF-1 sR (insulin-like growth factor-1 soluble receptor), CF (R&D Systems Cat#391-GR) (human, UniProt P08069 31-932).
T11 construct: Bought soluble receptor; also called IGF-R1
Briefly: ECL (MSD multi-spot), antigen on plate, Fab 0.5 nM.

For experiment [12], the target named is T12, Recombinant Human DLL4 (R&D Systems Cat#1506-D4/CF) (human, UniProt Q9NR61 27-524).
T12 construct: Bought recombinant protein; also called delta-like protein 4
Briefly: ECL (MSD multi-spot), antigen on plate, Fab 0.5 nM.

For experiment [13], the target named is T13, rHuman EGF R/Fc Chimera, CF (R&D Systems Cat#344-ER) (human, UniProt P00533 25-645).
T13 construct: Bought Fc chimera; also called ErbB-1; not shown: Fc of the bought chimera
Briefly: ECL (MSD multi-spot), antigen on plate, Fab 0.5 nM.

For experiment [14], the target named is T14, rHuman Notch-1/Fc Chimera, CF (R&D Systems Cat#3647-TK) (human, UniProt P46531 19-526).
T14 construct: Bought Fc chimera; not shown: Fc of the bought chimera
Briefly: ECL (MSD multi-spot), antigen on plate, Fab 0.5 nM.

Experiment [15] concerns the target T15, rHuman HGF R/c-MET/Fc Chimera, CF (R&D Systems Cat#358-MT/CF) (human, UniProt P08581 25-932).
T15 construct: Bought Fc chimera; also called HGF R/Fc; not shown: Fc of the bought chimera
Briefly: ECL (MSD multi-spot), antigen on plate, Fab 0.5 nM.

For experiment [16], the target named is T16, rHuman P-Cadherin/Fc Chimera, CF (R&D Systems Cat#861-PC) (human, UniProt P22223 108-654).
T16 construct: Bought Fc chimera; also called CDH3; not shown: Fc of the bought chimera
Briefly: ECL (MSD multi-spot), antigen on plate, Fab 0.5 nM.

Experiment [17] deals with T17, rHuman CD44/Fc Chimera, CF (R&D Systems Cat#3660-CD) (human, UniProt P16070 21-220).
T17 construct: Bought Fc chimera; not shown: Fc of the bought chimera
Briefly: ECL (MSD multi-spot), antigen on plate, Fab 0.5 nM.

For experiment [18], the target named is T18, rHuman Erythropoietin R/Fc Chimera, CF (R&D Systems Cat#963-ER) (human, UniProt P19235 25-250).
T18 construct: Bought Fc chimera; also called EPO R/Fc; Epo R; not shown: Fc of the bought chimera
T18 sequence: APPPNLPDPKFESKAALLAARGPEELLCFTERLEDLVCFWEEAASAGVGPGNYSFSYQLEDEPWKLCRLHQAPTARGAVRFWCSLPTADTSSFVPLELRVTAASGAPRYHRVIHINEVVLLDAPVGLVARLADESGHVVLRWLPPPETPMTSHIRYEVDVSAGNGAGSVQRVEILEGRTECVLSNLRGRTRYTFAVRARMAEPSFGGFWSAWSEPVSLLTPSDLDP
Briefly: ECL (MSD multi-spot), antigen on plate, Fab 0.5 nM.

For experiment [19], the target named is T19, rHuman ErbB2/Fc Chimera, CF (R&D Systems Cat#1129-ER) (human, UniProt P04626 23-652).
T19 construct: Bought Fc chimera; also called HER2/neu; not shown: Fc of the bought chimera
Briefly: ECL (MSD multi-spot), antigen on plate, Fab 0.5 nM.

B1: Fab VH1-46_IGHD3-10*01_IGHJ4*01 & B3_IGKJ1*01 (Fab, V domains shown)
VH: QVQLVQSGAEVKKPGASVKVSCKASGYTFTSYYMHWVRQAPGQGLEWMGIINPSGGSTSYAQKFQGRVTMTRDTSTSTVYMELSSLRSEDTAVYYCAREYYYGSGSYYNDYFDYWGQGTLVTVSS
VL: not shown
notes: also called IGHV1-46*01
As for B1, the ECL signal in experiment [1] was 203; in experiment [2], 342; in experiment [3], 317; in experiment [4], 2240; in [5] it was 215.

B2: Fab VH1-46_IGHD6-6*01_IGHJ1*01_S102A_S103P_S104F_H111Y & L6_IGKJ1*01 (Fab, V domains shown)
VH: QVQLVQSGAEVKKPGASVKVSCKASGYTFTSYYMHWVRQAPGQGLEWMGIINPSGGSTSYAQKFQGRVTMTRDTSTSTVYMELSSLRSEDTAVYYCAREEYAPFSAEYFQYWGQGTLVTVSS
VL: not shown
notes: Fab made in E. coli; The heavy chain also carries the CH1 with Flag and His tags of Plasmid A, and the light chain the kappa constant region of Plasmid C
For B2, the ECL signal in [6] worked out at 315; in [7] it was 383; in experiment [8], 413; in [9], 311; in [10], 84900.

B3: Fab VH1-46_IGHD6-6*01_IGHJ1*01_S102A_S103P_S104Y_H111Y & L6_IGKJ1*01 (Fab, V domains shown)
VH: QVQLVQSGAEVKKPGASVKVSCKASGYTFTSYYMHWVRQAPGQGLEWMGIINPSGGSTSYAQKFQGRVTMTRDTSTSTVYMELSSLRSEDTAVYYCAREEYAPYSAEYFQYWGQGTLVTVSS
VL: not shown
notes: Fab made in E. coli; The heavy chain also carries CH1 with Flag and His tags from Plasmid A, and the light chain carries kappa CL from Plasmid C
As to B3, the ECL signal in experiment [11] is 1660 ECL signal; in experiment [12] it was 5150 ECL signal; in experiment [13], 1750 ECL signal; in experiment [14], 1760 ECL signal; in [15] it was 1690 ECL signal; in [16], 2630 ECL signal. The ECL signal is 1560 ECL signal in [17], 1840 ECL signal in experiment [18] and 1720 ECL signal in [19].
